In one assay the target is T1, human FXIIa (Homo sapiens, UniProt P00748).
T1 construct: Factor XIIa, a beta-globulin plasma serine protease composed of an amino-terminal heavy chain and a carboxy-terminal light chain; purchased Enzyme Research Laboratories 1212a; host or cells: human plasma (said of the same vendor's proteins used as immunogen)
T1 sequence (P00748 20-372 limits assumed): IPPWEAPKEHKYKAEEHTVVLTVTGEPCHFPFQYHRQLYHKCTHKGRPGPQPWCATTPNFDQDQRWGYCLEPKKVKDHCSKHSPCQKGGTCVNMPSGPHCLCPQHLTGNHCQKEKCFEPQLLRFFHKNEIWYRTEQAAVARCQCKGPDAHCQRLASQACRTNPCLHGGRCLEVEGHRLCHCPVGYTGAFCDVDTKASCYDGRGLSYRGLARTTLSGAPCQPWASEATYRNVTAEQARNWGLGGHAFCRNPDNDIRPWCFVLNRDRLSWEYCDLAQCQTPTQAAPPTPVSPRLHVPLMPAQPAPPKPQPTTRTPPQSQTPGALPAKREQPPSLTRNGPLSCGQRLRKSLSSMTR
T1 sequence (P00748 373-615 limits assumed): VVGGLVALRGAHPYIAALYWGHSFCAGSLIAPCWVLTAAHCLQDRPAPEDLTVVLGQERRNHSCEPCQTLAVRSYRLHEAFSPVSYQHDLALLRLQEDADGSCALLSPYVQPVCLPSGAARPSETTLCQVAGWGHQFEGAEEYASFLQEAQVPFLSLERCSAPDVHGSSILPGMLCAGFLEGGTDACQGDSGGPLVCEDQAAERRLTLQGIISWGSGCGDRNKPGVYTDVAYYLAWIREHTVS
Description: Surface plasmon resonance (Biacore 4000) binding kinetics, hFXIIa. On the procedure:
Equilibrium dissociation constant (KD) for different FXII reagents binding to purified anti-FXII monoclonal antibodies were determined using a real-time surface plasmon resonance based Biacore 4000 biosensor. All binding studies were performed in 10 mM HEPES, 300 mM NaCl, and 0.05% v/v Surfactant Tween-20, pH 7.4 (HBS-P) running buffer at 25° C. and 37° C. The Biacore CM5 sensor chip surface was first derivatized by amine coupling with the mouse anti-human Fc specific monoclonal antibody (GE Healthcare Cat #BR100839) to capture anti-FXII monoclonal antibodies. Binding studies were performed on human FXII and FXIIa (Enzyme Research Laboratories, Cat #1212 and 1212a, respectively). Different concentrations of hFXII and hFXIIa (50 nM-3.125 nM; 2-fold serial dilution) were first prepared in HBS-P running buffer and were injected over anti-human Fc captured anti-FXII monoclonal antibody surface for 3 minutes at a flow rate of 30 uL/minute, while the dissociation of monoclonal antibody bound FXII reagent was monitored for 5 minutes in HBS-P running buffer. The association rate (ka) and dissociation rate (kd) were determined by fitting the real-time binding sensorgrams to a 1:1 binding model with mass transport limitation using Scrubber 2.0c curve-fitting software. Binding dissociation equilibrium constant (KD) and dissociative half-life (t½) were calculated from the kinetic rates as: […]

Assay [1] has as its system Extrinsic and Common pathways of the coagulation cascade. Description: Prothrombin Time (PT) in pooled normal human plasma. The assay is classed as biochemical. To be noted: for C2xt of Prothrombin Time (PT) - Extrinsic Pathway: dash cells, dose up to 4 uM; for effect on plasma PT (in words): dose response curves, pooled normal human plasma. An excerpt: (§1) This Example describes the inhibitory activity of selected antibodies, as determined by four functional plasma assays: 1) Activated Partial Thromboplastin Time (aPTT), 2) Prothrombin Time (PT), 3) Thrombin Generation Assay (TGA) triggered by ellagic acid and 4) TGA triggered by Tissue Factor. The aPTT test evaluates all clotting factors of the Intrinsic and Common pathways of the coagulation cascade by measuring time for a clot to form after the addition of calcium and ellagic acid, whereas the PT test evaluates all clotting factors of the Extrinsic and Common pathways of the coagulation cascade after the addition of calcium and Tissue Factor. The TGA triggered by ellagic acid measures the rate and amount of thrombin generated via the Intrinsic and Common pathways whereas TGA triggered by Tissue Factor measures the rate and amount of thrombin generated via the Extrinsic and Common pathways.
The PT was determined on Diagnostica Stago STart4 Hemostasis Analyzer in the following manner. A total of 50 ul of pooled normal human plasma was added to a cuvette at 37° C. After 1 min, 5 ul of a 2× serially diluted test article (antibody or small molecule inhibitor) in PBS was added to the cuvette and allowed to incubate for 5 min. Then 100 ul of Tissue Factor (TriniCLOT PT Excel, Diagnostica Stago) was added to start the reaction. The measured clot time for the test article concentration was normalized to baseline (no drug) plasma clot time and plotted against log molar concentration of the test article. The results were analyzed using nonlinear regression (4-parameter logistics) with Prism 5 software (GraphPad) to obtain doubling time concentration.

In assay [2] the test system is thrombin generated via the Extrinsic and Common pathways. Description: Thrombin Generation Assay (TGA) triggered by Tissue Factor. The settings on record: Extrinsic Pathway Activation with Tissue Factor; dash cells; dose up to 500 nM. In kind it is biochemical, human.
Excerpt: as §1
The thrombin generation profile was determined in a Thermo Scientific Hemker Thrombinoscope in the following manner: A total of 55 ul of pooled normal human plasma was added to a well of a microplate at 37° C. Then 5 ul of a 2× serially diluted test article (antibody or small molecule inhibitor) in PBS was added to the well of the microplate and allowed to incubate for 30 min. 15 ul of Tissue Factor PPP Reagent (Diagnostica Stago) was added to the well and allowed to incubate for 45 min. Then 15 ul of Fluo Flu Cal substrate (Diagnostica Stago) was added immediately before a continuous 90 min reading of the microplate. The measured real-time thrombin concentration values were plotted against time to yield a thrombogram profile for each concentration of the test article used.

The values that follow come from patent US12068729B2, “Anti-factor XII/XIIa antibodies and uses thereof” (Regeneron Pharmaceuticals, Inc., priority 2018, dated 2024).

B1: mAb26036: fully human anti-FXII/FXIIa monoclonal antibody, HCVR/LCVR SEQ ID NOs: 2/10 (antibody, V domains shown)
VH: QVQLVQSGAEVKKPGASVTVSCKASGYTFTSYYLHWVRQAPGQGLEWMGIINPSGGSTSYAQKFQGRVTMTRDTSTSTVYMELSSLRSEDTAVYYCARGVTTVTTYYHYYNMDVWGQGTTVTVSS
VL: DIQMTQSPSSLSASVGDRVTITCRASQGISNYLAWFQQKPGKAPKSLIYAASSLQSGVPSKFSGSGSGTDFTLTISSLQPEDFATYYCQKYNTYPLTFGGGTKVEIK
In the assay with human FXIIa (25° C.), B1 had a Kd of 3.78 nM, a ka of 42800 M⁻¹ s⁻¹, a kd of 0.000162 s⁻¹ and a t½ of 71.4 min. In the assay with human FXIIa (37° C.), binding was characterised by a dissociation constant (Kd) of 4.74 nM, the ka stood at 84600 M⁻¹ s⁻¹, the kd is 0.000401 s⁻¹ and the t½ is reported as 29 min. In assay [1], the “C2xt of Prothrombin Time (PT) - Extrinsic Pathway” value (“C2xt of Prothrombin Time (PT)” below) is “— (no inhibitory effect on clotting time with a dose up to 4 uM)” and the “effect on plasma PT (in words)” value was “without increasing PT”. In addition, in assay [2], the “Concentration required for ↑ lag time by 2×” value (“Concentration required … by 2×” for short) is “— (no effect on thrombin generation with a dose up to 500 nM)”, the “Concentration required for ↓ endogenous thrombin potential by ½” value is “— (no effect on thrombin generation with a dose up to 500 nM)” and the “Concentration required for ↓ thrombin peak by ½” value is reported as “— (no effect on thrombin generation with a dose up to 500 nM)”.

B2: mAb26049: fully human anti-FXII/FXIIa monoclonal antibody, HCVR/LCVR SEQ ID NOs: 34/42 (antibody, V domains shown)
VH: EVQLVESGGDLVQPGGSLRLSCAASGFTFNTYAMHWVRQAPGKGLEYISAIDTKGGSTYYADSVKGRFTISRDNSKNAQYLQMDSLRVEDMAVYYCARGFGLDVWGQGTTVTVSS
VL: DVVMTQSPLSLAVTLGQPASISCRSSQSLGYSDGNTYLNWFQQRPGQSPRRLIYKVSNRDSGVPDRFSGSGSGTDFTLKINRVETVDVGVYYCMQATHWPYTFGQGTKLEIK
As to B2, in the assay with human FXIIa (25° C.), binding was put at a Kd of 5.07 nM, the ka was 97600 M⁻¹ s⁻¹, the kd was 0.000495 s⁻¹ and the t½ is listed as 23.4 min. In the assay with human FXIIa (37° C.), the Kd was determined as 6.31 nM, the ka is 244000 M⁻¹ s⁻¹, the kd is 0.00154 s⁻¹ and the t½ came to 7 min. Moreover, in assay [1], the “C2xt of Prothrombin Time (PT)” value is “— (no inhibitory effect on clotting time with a dose up to 4 uM)” and the “effect on plasma PT (in words)” value is on record as “without increasing PT”. Also, in assay [2], the “Concentration required … by 2×” value is given as “— (no effect on thrombin generation with a dose up to 500 nM)”, the “Concentration required for ↓ endogenous thrombin potential by ½” value is listed as “— (no effect on thrombin generation with a dose up to 500 nM)” and the “Concentration required for ↓ thrombin peak by ½” value was “— (no effect on thrombin generation with a dose up to 500 nM)”.

B3: mAb26048: fully human anti-FXII/FXIIa monoclonal antibody, HCVR/LCVR SEQ ID NOs: 18/26 (antibody, V domains shown)
VH: EVQLVESGGGLVQPRGSLRLSCVASGFTFSDYGMSWVRQAPGKGLEWVSVIGGAGHGTYYADSVKGRFTISRDNSRNTLYLQMNSLRDEDTAVYYCAKKYYWNYVGGMDVWGRGTTVTVSS
VL: DIQMTQSPSSVSASVGDRVTITCRASQDINNWLAWYQQKPGKAPKLLISTASSLQSGVPSRFSGSGSGTDFTLTISSLQPEDFATYYCQQANSLPFTFGPGTKVDIK
In the assay with human FXIIa (25° C.), B3 had a Kd of 2.07 nM, a ka of 208000 M⁻¹ s⁻¹, a kd of 0.00043 s⁻¹ and a t½ of 26.8 min. In the assay with human FXIIa (37° C.), this molecule registered a Kd of 1.79 nM, a ka of 439000 M⁻¹ s⁻¹, a kd of 0.000784 s⁻¹ and a t½ of 15 min. In assay [1], the “C2xt of Prothrombin Time (PT)” value is “— (no inhibitory effect on clotting time with a dose up to 4 uM)” and the “effect on plasma PT (in words)” value is recorded as “without increasing PT”. In assay [2], the “Concentration required … by 2×” value is “— (no effect on thrombin generation with a dose up to 500 nM)”, the “Concentration required for ↓ endogenous thrombin potential by ½” value is “— (no effect on thrombin generation with a dose up to 500 nM)” and the “Concentration required for ↓ thrombin peak by ½” value was “— (no effect on thrombin generation with a dose up to 500 nM)”.

For orientation: Kd means the equilibrium constant for the complex coming apart. A low value points to a tighter complex. As usually defined, the t½ is the time in which the quantity being followed falls by half.
